Assay results reported in US5541109.
Ends that are not written are not given here.

Biological target: radiolabeled GST/PKA/rasGAP SH3 (Schistosoma japonicum (Blood fluke)) [GST: P08515]
Assay: peptide on AminoLink agarose, 32P-labelled fusion, counting

| Binder | percent of CPM bound to beads/CPM applied to beads [%] |
| --- | --- |
| APPAATPPPPRLFRPPA (also: covalently coupled to AminoLink agarose) [peptide pL17-2] | 10 |

Biological target: ^32 P-labeled GST/PKA/Src SH3 fusion protein (PKA site phosphorylated) (Schistosoma japonicum (Blood fluke)) [GST: P08515]
Assay: as above

| Binder | percent of CPM bound to beads/CPM applied to beads [%] |
| --- | --- |
| TPAPPPLPPRNV (also: covalently coupled to AminoLink agarose) [peptide pL35] | 90 |
| QSRPLPSPPKFT (not fully specified) [peptide pL14-1] | 70 |
| KPPTPPPEPET (not fully specified) [pSV40, proline-rich peptide from SV40 T antigen] | < 1 |

Biological target: ^32 P-labeled GST/PKA fusion protein (Schistosoma japonicum (Blood fluke)) [GST: P08515]
Assay: peptide on AminoLink resin, precipitation of 32P-labelled control fusion, counting

| Binder | fold lower binding than GST/PKA/Src SH3 [fold] |
| --- | --- |
| RPLPVPP (not fully specified) [fuse5B 4.3-7 (7 mer)] | 100 |
| QSRPLPSPPKFT (not fully specified) [peptide pL14-1] | 100 |
| RPLPSPP (not fully specified) [peptide pL14-1-7-mer] | 100 |
| LALARPLPVPPWRQI (not fully specified) [fuse5B 4.3-15 (15 mer)] | 100 |
| LARPLPVPPWRQ (not fully specified; printed as Leu Ala Arg Pro Leu Pro Val Pro Pro Trp Arg Gln) [fuse5B 4.3-12 (12 mer)] | 100 |
